{
  "source": "FireProtDB (doi:10.1016/j.bpc.2007.01.006)",
  "proteins": {"B1": {"name": "Beta-lactoglobulin wild type, P02754 (protein)", "chain": "MKCLLLALALTCGAQALIVTQTMKGLDIQKVAGTWYSLAMAASDISLLDAQSAPLRVYVEELKPTPEGDLEILLQKWENGECAQKKIIAEKTKIPAVFKIDALNENKVLVLDTDYKKYLLFCMENSAEPEQSLACQCLVRTPEVDDEALEKFDKALKALPMHIRLSFNPTQLEEQCHI"}},
  "settings": "Bos taurus, pH 2, 25 °C, Glycine-HCl 0.05 M, KCl 0.1 M, reversible: Yes, whole UniProt chain shown",
  "key": {"[1]": {"settings": "GdnHCl, Fluorescence, transition: 3"}},
  "note": "Several values for one entry are separate records, joined by “and”; a condition that tells them apart may be missing. Equal entries are not always repeated.",
  "data": [
    {"protein": "B1", "values": [
      {"measurement": "denaturant m value", "setting": "[1]", "result": "4.97 kcal/mol/M and 4.1 kcal/mol/M"},
      {"measurement": "denaturant midpoint (higher = more stable)", "setting": "[1]", "result": "1.44 M and 3.14 M"},
      {"measurement": "unfolding free energy", "setting": "[1]", "result": "7.15 kcal/mol and 4.88 kcal/mol"},
      {"measurement": "denaturant m value", "setting": "Urea, Absorbance", "result": 1.62, "unit": "kcal/mol/M"},
      {"measurement": "denaturant midpoint (higher = more stable)", "setting": "Urea, Absorbance", "result": 5.3, "unit": "M"},
      {"measurement": "unfolding free energy", "setting": "Urea, Absorbance", "result": 8.58, "unit": "kcal/mol"},
      {"measurement": "denaturant m value", "setting": "Urea, CD", "result": "1.06 kcal/mol/M and 1.08 kcal/mol/M and 1.1 kcal/mol/M"},
      {"measurement": "denaturant midpoint (higher = more stable)", "setting": "Urea, CD", "result": "6 M and 6.34 M and 6.55 M"},
      {"measurement": "unfolding free energy", "setting": "Urea, CD", "result": "6.41 kcal/mol and 6.84 kcal/mol and 7.17 kcal/mol"},
      {"measurement": "denaturant m value", "setting": "Urea, Fluorescence", "result": 1.56, "unit": "kcal/mol/M"},
      {"measurement": "denaturant midpoint (higher = more stable)", "setting": "Urea, Fluorescence", "result": 5.42, "unit": "M"},
      {"measurement": "unfolding free energy", "setting": "Urea, Fluorescence", "result": 8.41, "unit": "kcal/mol"}
    ]}
  ]
}
